Reference: paper PMC4349574 (Developmental cell, 2013)

Target: T1, Ypp1 (residues 11–817), purified, GST tag removed (S. cerevisiae, UniProt P46951 11-817)
T1 sequence (looked up): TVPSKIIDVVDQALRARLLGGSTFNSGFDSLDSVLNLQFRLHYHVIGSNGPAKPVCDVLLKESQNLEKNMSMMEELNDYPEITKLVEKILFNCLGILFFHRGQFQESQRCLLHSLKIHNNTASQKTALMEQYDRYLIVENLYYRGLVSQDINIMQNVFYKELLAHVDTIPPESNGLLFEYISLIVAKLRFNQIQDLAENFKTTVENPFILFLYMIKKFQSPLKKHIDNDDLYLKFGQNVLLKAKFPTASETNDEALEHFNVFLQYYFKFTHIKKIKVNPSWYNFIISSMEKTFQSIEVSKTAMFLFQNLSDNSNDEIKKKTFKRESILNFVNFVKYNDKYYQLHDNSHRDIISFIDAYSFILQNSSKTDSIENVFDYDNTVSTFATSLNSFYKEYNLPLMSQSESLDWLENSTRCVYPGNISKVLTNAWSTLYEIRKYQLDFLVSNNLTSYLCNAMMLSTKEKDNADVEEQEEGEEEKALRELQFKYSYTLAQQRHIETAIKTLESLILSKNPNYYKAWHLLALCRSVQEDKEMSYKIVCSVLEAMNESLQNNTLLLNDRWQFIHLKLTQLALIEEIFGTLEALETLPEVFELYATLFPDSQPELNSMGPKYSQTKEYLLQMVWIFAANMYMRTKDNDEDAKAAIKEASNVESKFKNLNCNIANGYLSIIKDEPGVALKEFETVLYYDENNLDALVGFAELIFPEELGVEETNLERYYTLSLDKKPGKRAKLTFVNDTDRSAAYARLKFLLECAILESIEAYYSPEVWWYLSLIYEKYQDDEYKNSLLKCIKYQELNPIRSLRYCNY
Experiment: pull-down

binding result: binds
B1: GST-Efr3-C_(651–730) (domain or fragment, S. cerevisiae, UniProt Q03653 651-730, looked up)
chain: APKVSDLKKTMNEKNIPNNMKRDGSFRGSQSVKSRVTNITFLLNELKTFSDDANKIKDPDEENIVGLDKIDVARSNSLRL
